For assay [1], the target named is GFP-Atx3 15Q (human) (UniProt P54252). Nature of the assay: co-IP; GFP-Trap agarose precipitates GFP-Atx3 from extracts of co-transfected 293T WT cells (1000 µg total protein, 20 µL bead slurry, 4 °C, 1 h); co-precipitated parkin detected by western blot and quantified by densitometry, n = 3. A general note: A western blot detects proteins with antibodies after separation by electrophoresis.

Assay [2] addresses GFP-Atx3 77Q (human) (UniProt P54252). Described as above.

With “6xMyc-parkin V380L (from UniProt O60260-1 1-465) (natural protein)”, the reduction of co-precipitated parkin against parkin WT in assay [1] turned out to be 87%; in assay [2], 62%.

Values taken from publication PMC11294389.
